Test results taken from paper PMC7417313, “Characterization of Binding Properties of Individual Functional Sites of Human Complement Factor H” (Frontiers in Immunology, 2020).

Molecular target: T1, C3b (human)
T1 construct: human complement C3, beta chain, as in C3b; human complement C3, alpha' chain of C3b (alpha chain without C3a); Mr 176,000 used; also called soluble C3b; fluid phase C3b
Assay: SPR; His-tagged rH fragment held on a Ni-charged NTA chip (BIAcore X or 3000; 500-1,000 RU, reloaded for each injection), C3 protein injected in HBS-P (10 mM HEPES pH 7.4, 150 mM NaCl, 0.005% P20) at 5 μL/min, 25°C; reference cell with nickel only; equilibrium levels fitted to a one-site equation
Conditions: both partners purified

B1: recombinant Factor H fragment rH 6-15 (domain or fragment)
chain: PCDYPDIKHGGLYHENMRRPYFPVAVGKYYSYYCDEHFETPSGSYWDHIHCTQDGWSPAVPCLRKCYFPYLENGYNQNYGRKFVQGKSIDVACHPGYALPKAQTTVTCMENGWSPTPRCIRVKTCSKSSIDIENGFISESQYTYALKEKAKYQCKLGYVTADGETSGSITCGKDGWSAQPTCIKSCDIPVFMNARTKNDFTWFKLNDTLDYECHDGYESNTGSTTGSIVCGYNGWSDLPICYERECELPKIDVHLVPDRKKDQYKVGEVLKFSCKPGFTIVGPNSVQCYHFGLSPDLPICKEQVQSCGPPPELLNGNVKEKTKEEYGHSEVVEYYCNPRFLMKGPNKIQCVDGEWTTLPVCIVEESTCGDIPELEHGWAQLSSPPYYYGDSVEFNCSESFTMIGHRSITCIHGVWTQLPQCVAIDKLKKCKSSNLIILEEHLKNKKEFDHNSNIRYRCRGKEGWIHTVCINGRWDPEVNCSMAQIQLCPPPPQIPNSHNMTTTLNYRDGEKVSVLCQENYLIQEGEEITCKDGRWQSIPLCVEKIPCSQPPQIEHGTINSSRSSQESYAHGTKLSYTCEGGFRISEENETTCYMGKWSSPPQCEG
modifications: Limits from Sushi 6 start to Sushi 15 end (928 by convention, as the candidate feature list is cut off after Sushi 12). Residue 402 is set to Tyr as printed (Y402 variant), whichever allele the entry
Kd: 15 µM
